US5643731A, “Use of pairs of leucine zipper peptides in immunoassay methods” (Behringwerke Aktiengesellschaft, priority 1990, dated 1997)

Key:
[1] = target: T1, Jun-anti-AFP antibody binding to the Fos-coated microtiter plate (FBJ murine osteosarcoma virus, UniProt P01102); test: Inhibition of the Jun-anti-AFP antibody binding to the Fos-coated microtiter plate by addition of free peptide
T1 construct: host or cells: synthetic peptides; conjugate made in house
Procedure: 100 μl portions of a Jun peptide-anti-AFP antibody conjugate (anti-AFP antibodies from sheep) prepared as in Example 2, Step 3 or 3a are pipetted into the wells of microtiter plates which were coated with Fos peptide as in Example 2, Step 1, and incubated at 37° C. for 2h. After the wells had been washed three times with washing buffer (OSEW, Behringwerke), 20 μl portions of standard or sample and 100 μl of a buffer (OSND, Behringwerke) with the addition of peroxidase-conjugated anti-AFP antibodies from sheep were introduced. The two-hour incubation at 37° C. is again stopped with a washing step (see above), and the substrate/chromogen reaction is carried out as in Example 2, Step 4.
The Jun/Fos AFP assay described hereinbefore was preceded by an incubation step with 100 μl in each case of a Jun or Fos peptide-containing buffer solution (buffer=OSND) per well at 37° C. for one hour. After 3 washes, the subsequent assay procedure was as specified above.

[2] = target: c-Jun "leucine zipper peptide" (SEQ ID No1) (Homo sapiens, UniProt P05412); conditions: cited from earlier work

| Sequence | Measured signal (extinction 450 nm) Standard S0 (0 IU AFP/ml) ([1]; free peptide 5 μg/ml) | Measured signal (extinction 450 nm) Standard S5 (300 IU AFP/ml) ([1]; free peptide 5 μg/ml) | Measured signal (extinction 450 nm) Standard S0 (0 IU AFP/ml) ([1]; free peptide 50 μg/ml) | Measured signal (extinction 450 nm) Standard S5 (300 IU AFP/ml) ([1]; free peptide 50 μg/ml) | Measured signal (extinction 450 nm) Standard S0 (0 IU AFP/ml) ([1]; free peptide 500 μg/ml) | Measured signal (extinction 450 nm) Standard S5 (300 IU AFP/ml) ([1]; free peptide 500 μg/ml) | heterodimeric complexes with the c-Jun "leucine zipper peptide" [2] | inhibition of the binding of Jun-anti-AFP antibody to the Fos-coated solid phase ([1]; addition of free peptide) |
| --- | --- | --- | --- | --- | --- | --- | --- | --- |
| LTDTLQAETDQLEDKKSALQTEIANLLKEKEKLEFILAAY [Fos, synthetic peptide comprising positions 162 to 201, the leucine zipper of the v-Fos protein] | 0.010 | 3.416 | 0.011 | 3.572 | 0.015 | 3.694 | forms very stable heterodimeric complexes |  |
| RIARLEEKVKTLKAQNSELASTANMLREQVAQLKQKVMNY [Jun, synthetic peptide comprising amino-acid positions 285 to 324, the so-called leucine zipper of the c-Jun protein] | 0.015 | 3.486 | 0.011 | 2.857 | 0.013 | 1.371 |  | possible to inhibit the binding |
